Legend:
ANGPTL3 = conditions: phase I clinical trials; cited from earlier work
PCSK9 gene splice site [1] = format: cell-based, cynomolgus monkey
Description: PCSK9 gRNAs were co-transfected with an equivalent amount of in vitro transcribed ABE8.8 mRNA MA002 (1:1 ratio by weight) into primary hepatocytes and processed as described in detailed methods. In one set of experiments, extracted genomic DNA was analyzed for base editing of the target splice site with next-generation sequencing of PCR amplicons generated around the target sites. Samples were prepared using the Nextera XT DNA library preparation kit (Illumina) according to the manufacturer's protocol. Briefly, two rounds of PCR were performed first to amplify the region of interest and second to add DNA sequences required for next generation sequencing and sample identification to the initial product. The final amplicon was sequenced on the Illumina MiSeq instrument according to the manufacturer's protocol.
Similarly, three gRNAs (GA098, GA099, GA100) were synthesized matching the 5′-[…]-3′ (SEQ ID NO: 15) (GA091) human protospacer sequence, as well as four gRNAs (GA067/GA101, GA102, GA103, GA347) matching the 5′-[…]-3′ (SEQ ID NO: 14) (GA067) cynomolgus protospacer sequence, but with more extensive chemical modifications of various kinds (Table 1). GA066 and GA095 contain the same chemical composition and modification pattern, as do GA067 and GA101 with one another. […] Each of the gRNAs described in Table 8, with an equivalent amount of in vitro transcribed ABE8.8 mRNA MA002 (1:1 ratio by weight), were co-transfected into primary human hepatocytes and primary cynomolgus hepatocytes via MessengerMax reagent, using various dilutions to assess for editing activity at different concentrations of test article. Three days after transfection, genomic DNA was harvested from the hepatocytes, and then assessed for base editing of the target splice site with next-generation sequencing.
Modifications and/or truncations to either the spacer or tracr portion of the gRNA was assessed by alteration of the GA066 spacer (5′-[…]-3′ (SEQ ID NO: 13)) (Table 12). […] Each of the gRNAs with an equivalent amount of in vitro transcribed ABE8.8 mRNA (1:1 ratio by weight) were co-transfected into primary human hepatocytes and primary cynomolgus hepatocytes and processed as described in detailed methods.
Lipid nanoparticles containing ABE8.8 mRNA and a gRNA matching the human/cynomolgus 5′-[…]-3′ (SEQ ID NO: 13) sequence (GA066) that targets the splice donor at the 5′ end of PCSK9 intron 1 were formulated at a 1:1 ratio by weight. The LNPs were administered to primary human hepatocytes and primary cynomolgus hepatocytes, using various dilutions to assess for editing activity at different concentrations of test article. LNP containing Cas9 mRNA and a gRNA matching a protospacer sequence in another gene, ANGPTL3, as a positive control was used for these experiments.
Plating, culturing, and transfection of primary hepatocytes. Primary human liver hepatocytes (PHH) and primary cynomolgus liver hepatocytes (PCH) from BioIVT were cultured per the manufacturer's protocol. Briefly, primary human hepatocytes and primary cyno hepatocytes were obtained as frozen aliquots from BioIVT.

PCSK9 gene splice site [2] = format: cell-based, human
Summary of the method: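 Primary human and cynomolgus hepatocytes co-transfected with gRNA plus ABE8.8 mRNA (1:1 by weight) or given LNP formulations across dilutions; genomic DNA harvested 3 days after transfection. Base editing at the PCSK9 intron 1 splice donor quantified by amplicon next-generation sequencing.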

| Molecule | lipid lowering effect (ANGPTL3) | Cynomolgous Primary Hepatocytes-splice site editing % 1250 ng/mL (PCSK9 gene splice site [1]) | Cynomolgous Primary Hepatocytes-splice site editing % 2500 ng/mL (PCSK9 gene splice site [1]) | Cynomolgous Primary Hepatocytes-splice site editing % 5000 ng/mL (PCSK9 gene splice site [1]) | Human Primary Hepatocytes-splice site editing % 1250 ng/mL (PCSK9 gene splice site [2]) | Human Primary Hepatocytes-splice site editing % 2500 ng/mL (PCSK9 gene splice site [2]) | Human Primary Hepatocytes-splice site editing % 5000 ng/mL (PCSK9 gene splice site [2]) |
| --- | --- | --- | --- | --- | --- | --- | --- |
| evinacumab | significant lipid lowering effect | – | – | – | – | – | – |
| GA072: PCSK9 gRNA for ABE8.8 splice site editing, Human/Cyno (nucleic acid, 2'-O-methyl at 1, 2, other sugars, backbone and T or U not given here; further chemistry not fully specified, PCSK9 gRNA for ABE8.8 splice site editing, Human/Cyno) guide: GGTGGCTCACCAGCTCCAGCGTTTTAGAGCTAGAAATAGCAAGTTAAAATAAGGCTAGTCCGTTATCAACTTGAAAAAGTGGCACCGAGTCGGTGCTTTT | – | 2.3% | 1.7% | 2.2% | 1.5% | 2.2% | 2.5% |
| GA077: PCSK9 gRNA for ABE8.8 splice site editing, Human/Cyno (nucleic acid, 2'-O-methyl at 1, 2, other sugars and backbone not given here; further chemistry not fully specified, PCSK9 gRNA for ABE8.8 splice site editing, Human/Cyno) guide: UCCCAGGCCTGGAGTTTATTGTTTTAGAGCTAGAAATAGCAAGTTAAAATAAGGCTAGTCCGTTATCAACTTGAAAAAGTGGCACCGAGTCGGTGCTTTT | – | 4.1% | 5.7% | 5.4% | 2.8% | 5.7% | 6.0% |
| GA079: PCSK9 gRNA for ABE8.8 splice site editing, Human/Cyno (nucleic acid, listed as RNA; modified_base 1: mod_base = OTHER; note = 2'-O-Methyl-cytidine phosphorothioate; modified_base 2: mod_base = OTHER; note = 2'-O-Methyl-uridine phosphorothioate; modified_bas, PCSK9 gRNA for ABE8.8 splice site editing, Human/Cyno) guide: CTTTCCAGGTCATCACAGTTGTTTTAGAGCTAGAAATAGCAAGTTAAAATAAGGCTAGTCCGTTATCAACTTGAAAAAGTGGCACCGAGTCGGTGCTTTT | – | 0.6% | 0.5% | 0.5% | 2.2% | 4.9% | 6.5% |
| GA080: PCSK9 gRNA for ABE8.8 splice site editing, Human/Cyno (nucleic acid, 2'-O-methyl at 1, 2, other sugars and backbone not given here; further chemistry not fully specified, PCSK9 gRNA for ABE8.8 splice site editing, Human/Cyno) guide: CCTTTCCAGGTCATCACAGTGTTTTAGAGCTAGAAATAGCAAGTTAAAATAAGGCTAGTCCGTTATCAACTTGAAAAAGTGGCACCGAGTCGGTGCTTTT | – | 7.1% | 8.8% | 7.0% | 0.4% | 0.5% | 0.6% |
| GA081: PCSK9 gRNA for ABE8.8 splice site editing, Human/Cyno (nucleic acid, listed as RNA; modified_base 1: mod_base = OTHER; note = 2'-O-Methyl-uridine phosphorothioate; modified_base 2: mod_base = OTHER; modified_base, PCSK9 gRNA for ABE8.8 splice site editing, Human/Cyno) guide: TTTCCAGGTCATCACAGTTGGTTTTAGAGCTAGAAATAGCAAGTTAAAATAAGGCTAGTCCGTTATCAACTTGAAAAAGTGGCACCGAGTCGGTGCTTTT | – | 0.3% | 0.3% | 0.3% | 4.3% | 6.1% | 8.3% |
| GA087: PCSK9 gRNA for ABE8.8 splice site editing, Human/Cyno (nucleic acid, 2'-O-methyl at 1, 2, other sugars and backbone not given here; further chemistry not fully specified, PCSK9 gRNA for ABE8.8 splice site editing, Human/Cyno) guide: UCACCTGCTCCTGAGGGGCCGTTTTAGAGCTAGAAATAGCAAGTTAAAATAAGGCTAGTCCGTTATCAACTTGAAAAAGTGGCACCGAGTCGGTGCTTTT | – | 0.2% | 0.2% | 0.2% | 1.0% | 1.4% | 1.9% |
| GA088: PCSK9 gRNA for ABE8.8 splice site editing, Human/Cyno (nucleic acid, 2'-O-methyl at 1, 2, other sugars and backbone not given here; further chemistry not fully specified, PCSK9 gRNA for ABE8.8 splice site editing, Human/Cyno) guide: CCCAGGCTGCAGCTCCCACTGTTTTAGAGCTAGAAATAGCAAGTTAAAATAAGGCTAGTCCGTTATCAACTTGAAAAAGTGGCACCGAGTCGGTGCTTTT | – | 17.0% | 23.0% | 24.8% | 3.6% | 6.2% | 7.2% |

Source: US20250152746A1, “BASE EDITING OF ANGPTL3 AND METHODS OF USING SAME FOR TREATMENT OF DISEASE” (Verve Therapeutics, Inc., priority 2020, published 2025)
